The text below walks through data of patent US11161912B2, “Heparanase-neutralizing monoclonal antibodies” (Technion Research & Development Foundation Limited, priority 2015, dated 2021).

One assay relates to CAG myeloma cells. In words: CAG-luciferase myeloma, tail vein inoculation, tumor burden by IVIS imaging. The assay is classed as in vivo, human. The settings on record: mAb 600 μg/mouse every other day. As to the method:
Tumorigenicity. Luciferase-labelled CAG myeloma (5×10^6) or Raji lymphoma (1×10^6) cells were injected into the tail vein of NOD/SCID mice (n=5). Mice were treated with PG545 (20 mg/kg, once weekly), mAb 9E8 (600 μg/mouse) every other day starting one day following cell inoculation and tumor growth was examined by IVIS imaging. At termination, mice were sacrificed, the backbones were excised, fixed in formalin and following de-calcification with 10% EDTA solution were embedded in paraffin and subjected to histological and immunohistochemical analyses essentially as described (Weissmann et al, 2016, Proc Natl Acad Sci USA 113:704-709). […]
IVIS imaging. […] Light emitted from the bioluminescent cells was detected by the IVIS camera system with images quantified for tumor burden using a log-scale color range set at 5×10^4 to 1×10^7 and measurement of total photon counts per second (PPS) using Living Image software (Xenogen) (Weissmann et al, 2016, Proc Natl Acad Sci USA 113:704-709).
FIG. 6A. […] Tumor growth was evaluated by IVIS imaging (left panels). Quantification of luciferase signals is shown graphically in the right panel. […] Bone marrow was harvested from C57Bl/6 mice, cells were collected by centrifugation and heparanase activity was determined as described under ‘Materials and Methods’ (left panel). […]

A further assay has as its system U87 glioma cells. Nature of the assay: Matrigel cell invasion, U87 glioma cells. The assay is classed as cell-based, human. As to conditions: mAb 2 μg, 6 h. Here is the method:
Cell invasion. Matrigel invasion assay was performed using modified Boyden chambers with polycarbonate Nucleopore membrane (Corning, Corning, N.Y.), essentially as described (17). Briefly, filters (6.5 mm in diameter, 8 μm pore-size) were coated with Matrigel (30 μl); Cells (2×10^5) in 100 μl of serum-free medium were seeded in triplicate on the upper part of each chamber, and the lower compartment was filled with 600 μl medium supplemented with 10% FCS. After incubation for 5 h at 37° C. in a 5% CO2 incubator, non-invading cells on the upper surface of the filter were wiped with a cotton swab, and migrated cells on the lower surface of the filter were fixed, stained with 0.5% crystal violet (Sigma) and counted by examination of at least seven microscopic fields.
FIG. 5A. Cell invasion. Cal-27 tongue carcinoma (left panels) and U87 glioma cells (right panels) (2×10^5) were plated onto Matrigel-coated filters in the presence of mouse IgM/IgG (upper panels), mAb 9E8 (2 μg; second left and middle panels). Invading cells adhering to the lower side of the membrane were visualized after 6 h. […] Lungs were harvested after 18 days, photographed (lower panel) and the number of metastatic lesions was counted (upper panel; p=0.001, 0.0006, 0.0001 for Con vs. Ab 1453, Con vs. mAb 9E8 and Con vs. SST0001, respectively). […]

B1: mAb 9E8: monoclonal IgM raised against KKDC peptide (Lys158-Asn171) of heparanase; VH SEQ ID NO: 7, VL SEQ ID NO: 8 (antibody)
VH: EVKLLESGGGLVQPGGSLKLSCAASGFDFSRYWMSWVRQAPGKGLEWIGEINPDSSTINYTPSLKDKFIISRDNAKNTLYLQMSKVRSEDTALYYCARRGYEGNYAMDYWGQGTSVTVSSESQSFPNVFPLVSCESPLSDKNLVAMGCLAR
VL: DIVMTQAAPSVPVTPGESVSISCRSSKSLLHSNGNTYLYWFLQRPGQSPQLLIYRMSNLASGVPDRFSGSGSGTAFTLRISRVEAEDVGVYYCMQHLEYPFTFGSGTKLEIKRADAAPTVSIFPPSSEQLTSGGASVVCFL
modifications: IgM constant regions
As to B1, the “decrease in tumor burden (luciferase signal)” value in the assay on CAG myeloma cells is given as 2-3 fold. The cell invasion entry with U87 glioma cells is on record as “inhibitory effect”.
